Experimental data published in US20190185537A1 (AstraZeneca / MedImmune, published 2019).
Read-outs that look alike come from different tables or passages of the source. Numbered stars: 1 amine (or outer) side, 2 acyl side, 3 side chain; on linkers, the order of the positions; unused ones are H or OH. Side chains are listed from the residue outwards. Ends that are not written are not given here. * marks the point of attachment. γGlu = O=C(O)[C@H](CCC(=O)[*:2])N[*:1]; Palmitoyl = CCCCCCCCCCCCCCCC(=O)*

Columns and labels:
human glucagon receptor [1] = molecular target: T1, human glucagon receptor (human, UniProt P47871 26-477); assay: cell-based or functional assay
T1 sequence (P47871 26-477): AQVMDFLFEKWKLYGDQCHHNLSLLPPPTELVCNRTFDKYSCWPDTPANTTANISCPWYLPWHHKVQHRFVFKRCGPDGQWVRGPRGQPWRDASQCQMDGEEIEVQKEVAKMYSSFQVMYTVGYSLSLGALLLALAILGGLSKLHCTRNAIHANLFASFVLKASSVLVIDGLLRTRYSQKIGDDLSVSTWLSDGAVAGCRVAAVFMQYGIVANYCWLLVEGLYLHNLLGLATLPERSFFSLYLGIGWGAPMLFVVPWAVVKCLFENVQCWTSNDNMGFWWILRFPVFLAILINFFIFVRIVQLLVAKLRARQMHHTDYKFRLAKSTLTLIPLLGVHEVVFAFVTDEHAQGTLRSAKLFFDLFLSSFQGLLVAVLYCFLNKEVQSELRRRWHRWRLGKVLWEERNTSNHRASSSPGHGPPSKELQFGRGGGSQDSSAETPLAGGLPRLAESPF

human GLP-1 receptor [2] = molecular target: T2, human GLP-1 receptor (human, UniProt P43220 24-463); assay: cell-based or functional assay
[3] = molecular target: T3, human glucose-dependent insulinotropic peptide (gastric inhibitory polypeptide) receptor (human, UniProt P48546 22-466); assay: cell-based or functional assay
T3 sequence (looked up): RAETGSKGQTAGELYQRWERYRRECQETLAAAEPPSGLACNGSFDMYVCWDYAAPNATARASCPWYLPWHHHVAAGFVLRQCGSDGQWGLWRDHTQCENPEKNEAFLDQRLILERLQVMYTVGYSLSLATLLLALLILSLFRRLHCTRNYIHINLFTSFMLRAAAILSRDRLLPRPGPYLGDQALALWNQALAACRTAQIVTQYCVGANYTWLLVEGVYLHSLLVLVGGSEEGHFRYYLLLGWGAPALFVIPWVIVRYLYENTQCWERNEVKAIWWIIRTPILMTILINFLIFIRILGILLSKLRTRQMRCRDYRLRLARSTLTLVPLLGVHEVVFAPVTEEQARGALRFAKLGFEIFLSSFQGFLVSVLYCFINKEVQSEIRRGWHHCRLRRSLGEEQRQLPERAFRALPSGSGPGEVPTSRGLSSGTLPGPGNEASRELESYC

human glucagon receptor [4] = molecular target: T1, human glucagon receptor; assay: cell-based or functional assay; remark: listed apart in the source
human GLP-1 receptor [5] = molecular target: T2, human GLP-1 receptor; assay: cell-based or functional assay; remark: listed apart in the source
[6] = molecular target: T3, human glucose-dependent insulinotropic …; assay: cell-based or functional assay; remark: listed apart in the source
human glucagon receptor [7] = molecular target: T1, human glucagon receptor; assay: cell-based or functional assay; remark: listed apart in the source
human GLP-1 receptor [8] = molecular target: T2, human GLP-1 receptor; assay: cell-based or functional assay; remark: listed apart in the source
mouse GLP-1 receptor = molecular target: T4, mouse GLP-1 receptor (mouse, UniProt O35659 22-463); assay: cell-based or functional assay
T4 sequence (looked up): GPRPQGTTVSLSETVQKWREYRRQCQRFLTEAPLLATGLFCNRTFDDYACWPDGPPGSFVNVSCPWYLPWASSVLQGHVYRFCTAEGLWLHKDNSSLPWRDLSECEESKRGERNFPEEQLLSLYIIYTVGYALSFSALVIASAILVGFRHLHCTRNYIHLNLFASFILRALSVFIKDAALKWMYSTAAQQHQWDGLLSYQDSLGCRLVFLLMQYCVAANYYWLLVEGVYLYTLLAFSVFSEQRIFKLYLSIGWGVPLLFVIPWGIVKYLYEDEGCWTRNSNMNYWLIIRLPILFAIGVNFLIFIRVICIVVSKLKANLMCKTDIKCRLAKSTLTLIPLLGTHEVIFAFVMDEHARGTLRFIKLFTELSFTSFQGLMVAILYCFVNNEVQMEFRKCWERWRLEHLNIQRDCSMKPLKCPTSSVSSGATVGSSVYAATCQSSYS

mouse glucagon receptor = mouse glucagon receptor (mouse, UniProt Q61606 27-485); assay: cell-based or functional assay
Chain of mouse glucagon receptor (Q61606 27-485): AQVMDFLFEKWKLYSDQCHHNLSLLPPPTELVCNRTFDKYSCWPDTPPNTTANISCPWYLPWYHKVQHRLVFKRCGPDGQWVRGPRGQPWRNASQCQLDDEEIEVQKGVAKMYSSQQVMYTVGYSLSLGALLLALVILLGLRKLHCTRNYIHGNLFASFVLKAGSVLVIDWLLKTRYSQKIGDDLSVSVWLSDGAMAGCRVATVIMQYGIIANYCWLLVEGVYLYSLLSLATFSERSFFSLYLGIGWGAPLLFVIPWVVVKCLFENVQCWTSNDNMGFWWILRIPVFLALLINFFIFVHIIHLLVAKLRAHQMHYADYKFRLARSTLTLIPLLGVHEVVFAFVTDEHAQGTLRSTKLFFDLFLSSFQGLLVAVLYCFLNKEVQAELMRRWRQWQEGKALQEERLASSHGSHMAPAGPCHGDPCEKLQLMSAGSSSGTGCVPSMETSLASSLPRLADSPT

rat GLP-1 receptor = molecular target: T5, rat GLP-1 receptor (rat, UniProt P32301 22-463); assay: cell-based or functional assay
T5 sequence (looked up): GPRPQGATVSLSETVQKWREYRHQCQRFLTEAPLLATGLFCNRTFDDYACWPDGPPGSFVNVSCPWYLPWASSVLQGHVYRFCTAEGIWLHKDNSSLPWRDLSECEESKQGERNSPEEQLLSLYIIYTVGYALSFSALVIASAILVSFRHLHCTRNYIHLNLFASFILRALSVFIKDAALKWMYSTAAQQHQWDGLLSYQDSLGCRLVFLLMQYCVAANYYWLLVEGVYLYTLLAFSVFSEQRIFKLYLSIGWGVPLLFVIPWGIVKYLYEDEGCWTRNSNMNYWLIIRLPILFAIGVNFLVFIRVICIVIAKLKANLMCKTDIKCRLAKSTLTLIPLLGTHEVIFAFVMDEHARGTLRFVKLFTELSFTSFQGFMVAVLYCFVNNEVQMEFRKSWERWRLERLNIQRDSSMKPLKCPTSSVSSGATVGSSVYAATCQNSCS

rat glucagon receptor = rat glucagon receptor (rat, UniProt P30082 27-485); assay: cell-based or functional assay
Chain of rat glucagon receptor (P30082 27-485): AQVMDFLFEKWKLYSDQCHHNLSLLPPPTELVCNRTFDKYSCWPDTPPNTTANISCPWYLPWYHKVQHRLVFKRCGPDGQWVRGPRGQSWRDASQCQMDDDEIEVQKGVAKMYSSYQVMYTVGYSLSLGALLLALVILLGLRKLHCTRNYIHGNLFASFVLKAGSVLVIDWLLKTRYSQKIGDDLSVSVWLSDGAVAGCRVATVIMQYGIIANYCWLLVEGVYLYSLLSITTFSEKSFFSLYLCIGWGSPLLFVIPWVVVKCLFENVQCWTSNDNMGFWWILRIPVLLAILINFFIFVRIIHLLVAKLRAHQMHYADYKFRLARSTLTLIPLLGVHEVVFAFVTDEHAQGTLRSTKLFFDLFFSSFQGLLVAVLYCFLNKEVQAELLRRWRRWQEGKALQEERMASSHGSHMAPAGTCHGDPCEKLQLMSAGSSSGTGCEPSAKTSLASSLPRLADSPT

human GLP-1 receptor [9] = molecular target: T2, human GLP-1 receptor; assay: cell-based or functional assay; remark: listed apart in the source
[10] = molecular target: human serum albumin (human) (UniProt P02768); assay: calculated from the variation in cAMP generation with the HSA concentration
Chain of human serum albumin (human) (P02768 25-609 limits assumed): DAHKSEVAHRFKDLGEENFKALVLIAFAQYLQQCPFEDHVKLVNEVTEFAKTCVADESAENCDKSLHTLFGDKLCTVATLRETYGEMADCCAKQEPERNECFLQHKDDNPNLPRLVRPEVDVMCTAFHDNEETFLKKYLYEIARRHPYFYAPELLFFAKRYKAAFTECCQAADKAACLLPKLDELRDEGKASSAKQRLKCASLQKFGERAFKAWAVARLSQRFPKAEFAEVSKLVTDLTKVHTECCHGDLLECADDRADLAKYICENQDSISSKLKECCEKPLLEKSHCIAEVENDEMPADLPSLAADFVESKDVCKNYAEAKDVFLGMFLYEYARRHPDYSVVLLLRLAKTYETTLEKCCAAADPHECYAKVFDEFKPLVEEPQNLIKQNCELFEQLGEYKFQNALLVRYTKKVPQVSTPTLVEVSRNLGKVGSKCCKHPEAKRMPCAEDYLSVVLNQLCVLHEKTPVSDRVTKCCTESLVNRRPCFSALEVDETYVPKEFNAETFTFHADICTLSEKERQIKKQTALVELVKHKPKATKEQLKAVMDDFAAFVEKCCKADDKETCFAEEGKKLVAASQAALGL

[11] = molecular target: human GLP-1 receptor (human) (UniProt P43220); assay: cell-based or functional assay
Chain of human GLP-1 receptor (human) (P43220 24-463): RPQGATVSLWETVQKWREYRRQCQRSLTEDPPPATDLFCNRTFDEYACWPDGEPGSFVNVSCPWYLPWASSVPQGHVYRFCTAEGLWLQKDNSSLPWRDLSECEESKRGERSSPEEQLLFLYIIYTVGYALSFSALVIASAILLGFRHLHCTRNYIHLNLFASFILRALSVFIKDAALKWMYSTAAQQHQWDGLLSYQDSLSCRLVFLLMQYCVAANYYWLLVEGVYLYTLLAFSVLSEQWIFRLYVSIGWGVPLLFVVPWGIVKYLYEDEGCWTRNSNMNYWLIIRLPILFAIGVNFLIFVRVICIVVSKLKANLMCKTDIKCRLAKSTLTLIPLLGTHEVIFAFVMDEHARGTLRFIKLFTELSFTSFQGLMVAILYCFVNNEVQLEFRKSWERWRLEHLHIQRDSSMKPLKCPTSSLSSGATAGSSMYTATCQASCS

[12] = molecular target: human glucagon receptor (human) (UniProt P47871); assay: cell-based or functional assay
Chain of human glucagon receptor (human) (P47871 26-477): as the sequence (P47871 26-477) above

[13] = molecular target: T6, human glucose-dependent insulinotropic peptide (gastric inhibitory polypeptide) receptor (human) (UniProt P48546); assay: cell-based or functional assay
T6 sequence (looked up): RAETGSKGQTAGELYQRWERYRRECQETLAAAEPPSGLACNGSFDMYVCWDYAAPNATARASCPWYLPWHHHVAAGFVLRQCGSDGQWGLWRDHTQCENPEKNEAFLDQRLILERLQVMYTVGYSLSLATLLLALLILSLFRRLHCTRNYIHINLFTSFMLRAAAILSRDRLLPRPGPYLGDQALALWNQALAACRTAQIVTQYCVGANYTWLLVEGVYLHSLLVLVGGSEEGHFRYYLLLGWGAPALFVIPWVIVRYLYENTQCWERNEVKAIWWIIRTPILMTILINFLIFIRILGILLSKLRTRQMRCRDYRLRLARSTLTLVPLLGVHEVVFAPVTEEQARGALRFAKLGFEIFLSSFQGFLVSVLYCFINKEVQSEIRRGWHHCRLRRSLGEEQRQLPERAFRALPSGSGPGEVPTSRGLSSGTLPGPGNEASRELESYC

human glucagon receptor [14] = molecular target: T1, human glucagon receptor; assay: cell-based or functional assay; remark: listed apart in the source
human GLP-1 receptor [15] = molecular target: T2, human GLP-1 receptor; assay: cell-based or functional assay; remark: listed apart in the source

Binder: HSQGTFTSDKSSYLDSRRARDFVAWLEAGG (X10 = K(gE-palm); C-terminal amide) [G796]
- cAMP EC50 (assay 1) (human glucagon receptor [1]): 0.00176 nM
- cAMP EC50 (assay 1) (human GLP-1 receptor [2]): 0.013 nM
- cAMP EC50 (assay 1) [3]: 14 nM
- cAMP EC50 (assay 1) (human glucagon receptor [4]): 0.00181 nM
- cAMP EC50 (assay 1) (human GLP-1 receptor [5]): 0.014 nM
- cAMP EC50 (assay 1) [6]: 17.4 nM
- cAMP EC50 (assay 2, 4.4% human serum albumin) (human glucagon receptor [7]): 0.053 nM
- cAMP EC50 (assay 2, 4.4% human serum albumin) (human GLP-1 receptor [8]): 0.14 nM
- cAMP EC50 (assay 2, 3.2% mouse serum albumin) (mouse GLP-1 receptor): 0.13 nM
- cAMP EC50 (assay 2, 3.2% mouse serum albumin) (mouse glucagon receptor): 0.034 nM
- cAMP EC50 (assay 2, 3.2% rat serum albumin) (rat GLP-1 receptor): 0.023 nM
- cAMP EC50 (assay 2, 3.2% rat serum albumin) (rat glucagon receptor): 2 nM

Binder: HSQGTFTSDKSRYLDSRSARDFVAWLEAGG (X10 = K(gE-palm); C-terminal amide) [G849]
- EC50 at the GLP1R at 0% HSA (calculated) (human GLP-1 receptor [9]): 0.002 nM
- cAMP EC50 (assay 1) (human glucagon receptor [1]): 0.00226 nM
- cAMP EC50 (assay 1) (human GLP-1 receptor [2]): 0.009 nM
- cAMP EC50 (assay 1) [3]: 17 nM
- cAMP EC50 (assay 1) (human GLP-1 receptor [5]): 0.00907 nM
- cAMP EC50 (assay 1) [6]: 18.1 nM
- cAMP EC50 (assay 2, 4.4% human serum albumin) (human glucagon receptor [7]): 0.079 nM
- cAMP EC50 (assay 2, 4.4% human serum albumin) (human GLP-1 receptor [8]): 0.172 nM
- cAMP EC50 (assay 2, 3.2% mouse serum albumin) (mouse glucagon receptor): 0.103 nM
- cAMP EC50 (assay 2, 3.2% rat serum albumin) (rat GLP-1 receptor): 0.044 nM
- cAMP EC50 (assay 2, 3.2% rat serum albumin) (rat glucagon receptor): 4.05 nM
- free peptide at 4.4% HSA [10]: 0.48%

B1: G380 (peptide)
peptide: HGQGTFTSDYSKYLDSK([γGlu-Palmitoyl])RAQDFVQWLVAGG-NH2
modifications: N-terminus assumed
SMILES: CCCCCCCCCCCCCCCC(=O)N[C@@H](CCC(=O)NCCCC[C@H](NC(=O)[C@H](CO)NC(=O)[C@H](CC(=O)O)NC(=O)[C@H](CC(C)C)NC(=O)[C@H](Cc1ccc(O)cc1)NC(=O)[C@H](CCCCN)NC(=O)[C@H](CO)NC(=O)[C@H](Cc1ccc(O)cc1)NC(=O)[C@H](CC(=O)O)NC(=O)[C@H](CO)NC(=O)[C@@H](NC(=O)[C@H](Cc1ccccc1)NC(=O)[C@@H](NC(=O)CNC(=O)[C@H](CCC(N)=O)NC(=O)CNC(=O)[C@@H](N)Cc1c[nH]cn1)[C@@H](C)O)[C@@H](C)O)C(=O)N[C@@H](CCCNC(=N)N)C(=O)N[C@@H](C)C(=O)N[C@@H](CCC(N)=O)C(=O)N[C@@H](CC(=O)O)C(=O)N[C@@H](Cc1ccccc1)C(=O)N[C@H](C(=O)N[C@@H](CCC(N)=O)C(=O)N[C@@H](Cc1c[nH]c2ccccc12)C(=O)N[C@@H](CC(C)C)C(=O)N[C@H](C(=O)N[C@@H](C)C(=O)NCC(=O)NCC(N)=O)C(C)C)C(C)C)C(=O)O
- cAMP EC50 (assay 1) (human glucagon receptor [1]): 0.217 nM
- cAMP EC50 (assay 1) (human GLP-1 receptor [2]): 0.077 nM
- cAMP EC50 (assay 1) [3]: 130 nM
- cAMP EC50 (assay 1) (human glucagon receptor [4]): 0.362 nM
- cAMP EC50 (assay 1) (human GLP-1 receptor [5]): 0.1 nM
- cAMP EC50 (assay 1) [6]: 609 nM
- cAMP EC50 (assay 2, 4.4% human serum albumin) (human glucagon receptor [7]): 53.6 nM
- cAMP EC50 (assay 2, 4.4% human serum albumin) (human GLP-1 receptor [8]): 6.54 nM
- cAMP EC50 (assay 2, 3.2% mouse serum albumin) (mouse GLP-1 receptor): 15 nM
- cAMP EC50 (assay 2, 3.2% mouse serum albumin) (mouse glucagon receptor): 576 nM

Binder: HSQGTFTSDYSKYLDSRRAQDFVQWLVAGGPSSGAPPPSK(Palmitoyl)-NH2 [g320]
- cAMP EC50 (assay 1) [11]: 0.00938 nM
- cAMP EC50 (assay 1) [12]: 0.0032 nM
- cAMP EC50 (assay 1) [13]: 1.01 nM

Binder: HSQGTFTSDKSKYLEGQAAKEFIAWLEKGR (X10 = K(gE-palm); C-terminal amide) [G812]
- cAMP EC50 (assay 1) (human glucagon receptor [1]): 0.00817 nM
- cAMP EC50 (assay 1) (human GLP-1 receptor [2]): 0.011 nM
- cAMP EC50 (assay 1) [3]: 2.7 nM
- cAMP EC50 (assay 2, 4.4% human serum albumin) (human glucagon receptor [7]): 0.764 nM
- cAMP EC50 (assay 2, 4.4% human serum albumin) (human GLP-1 receptor [8]): 0.316 nM
- cAMP EC50 (assay 2, 3.2% mouse serum albumin) (mouse GLP-1 receptor): 0.13 nM
- cAMP EC50 (assay 2, 3.2% mouse serum albumin) (mouse glucagon receptor): 0.947 nM
- cAMP EC50 (assay 2, 3.2% rat serum albumin) (rat GLP-1 receptor): 0.019 nM
- cAMP EC50 (assay 2, 3.2% rat serum albumin) (rat glucagon receptor): 14.1 nM

B2: G931 (peptide)
peptide: HSQGTFTSDYSKK([γGlu-Palmitoyl])LDSERARDFVAWLVAGG-OH
modifications: N-terminus assumed
SMILES: CCCCCCCCCCCCCCCC(=O)N[C@@H](CCC(=O)NCCCC[C@H](NC(=O)[C@H](CCCCN)NC(=O)[C@H](CO)NC(=O)[C@H](Cc1ccc(O)cc1)NC(=O)[C@H](CC(=O)O)NC(=O)[C@H](CO)NC(=O)[C@@H](NC(=O)[C@H](Cc1ccccc1)NC(=O)[C@@H](NC(=O)CNC(=O)[C@H](CCC(N)=O)NC(=O)[C@H](CO)NC(=O)[C@@H](N)Cc1c[nH]cn1)[C@@H](C)O)[C@@H](C)O)C(=O)N[C@@H](CC(C)C)C(=O)N[C@@H](CC(=O)O)C(=O)N[C@@H](CO)C(=O)N[C@@H](CCC(=O)O)C(=O)N[C@@H](CCCNC(=N)N)C(=O)N[C@@H](C)C(=O)N[C@@H](CCCNC(=N)N)C(=O)N[C@@H](CC(=O)O)C(=O)N[C@@H](Cc1ccccc1)C(=O)N[C@H](C(=O)N[C@@H](C)C(=O)N[C@@H](Cc1c[nH]c2ccccc12)C(=O)N[C@@H](CC(C)C)C(=O)N[C@H](C(=O)N[C@@H](C)C(=O)NCC(=O)NCC(=O)O)C(C)C)C(C)C)C(=O)O
- cAMP EC50 (assay 1) (human glucagon receptor [14]): 0.0178 nM
- cAMP EC50 (assay 1) (human GLP-1 receptor [15]): 0.13 nM

Binder: HSQGTFTSDYSKYLDSRRAQDFVQWLVAGGPSSGAPPPSK-NH2 [g319]
- cAMP EC50 (assay 1) [11]: 0.0361 nM
- cAMP EC50 (assay 1) [12]: 0.0104 nM
